According to patent EP0946727B1:

Legend:
[1] = target: human CD11a (human) (UniProt P20701); assay: FACScan on Jurkat cells
[2] = target: human CD11a (human) (UniProt P20701); assay: blocking of Jurkat cell adhesion to human keratinocytes (ICAM-1)
[3] = target: human CD11a (human) (UniProt P20701); assay: cell-based or functional assay
[4] = target: human CD11a (human) (UniProt P20701); assay: cell binding, human CD11a
[5] = target: human CD11a (human) (UniProt P20701); assay: binding to Jurkat cells (FACScan)
[6] = target: human CD11a (human) (UniProt P20701); assay: saturation binding, human lymphocytes, donor 1, Kd(app)
[7] = target: human CD11a (human) (UniProt P20701); assay: saturation binding, human lymphocytes, donor 2, Kd(app)
[8] = target: human CD11a (human) (UniProt P20701); assay: saturation binding of 125I-antibody to human peripheral blood mononuclear cells, Kd(app)
[9] = target: rhesus CD18 (rhesus) (UniProt H9Z8N5); assay: blocking of rhesus lymphocyte adhesion to human keratinocytes
[10] = target: rhesus CD18 (rhesus) (UniProt H9Z8N5); assay: blocking of rhesus lymphocyte adhesion to recombinant human ICAM-1 on plates

humanized MHM24 IgG1 (antibody), sequence (main, form in doubt): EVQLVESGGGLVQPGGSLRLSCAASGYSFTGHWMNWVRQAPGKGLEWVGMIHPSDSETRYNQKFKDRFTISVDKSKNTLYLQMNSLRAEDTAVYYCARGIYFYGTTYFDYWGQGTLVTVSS
humanized MHM24 IgG1 (antibody), sequence (main, form in doubt): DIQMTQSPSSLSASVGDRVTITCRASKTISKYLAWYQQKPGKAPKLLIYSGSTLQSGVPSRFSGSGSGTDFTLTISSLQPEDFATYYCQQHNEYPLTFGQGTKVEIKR
human CD11a (human), sequence (P20701 26-1170): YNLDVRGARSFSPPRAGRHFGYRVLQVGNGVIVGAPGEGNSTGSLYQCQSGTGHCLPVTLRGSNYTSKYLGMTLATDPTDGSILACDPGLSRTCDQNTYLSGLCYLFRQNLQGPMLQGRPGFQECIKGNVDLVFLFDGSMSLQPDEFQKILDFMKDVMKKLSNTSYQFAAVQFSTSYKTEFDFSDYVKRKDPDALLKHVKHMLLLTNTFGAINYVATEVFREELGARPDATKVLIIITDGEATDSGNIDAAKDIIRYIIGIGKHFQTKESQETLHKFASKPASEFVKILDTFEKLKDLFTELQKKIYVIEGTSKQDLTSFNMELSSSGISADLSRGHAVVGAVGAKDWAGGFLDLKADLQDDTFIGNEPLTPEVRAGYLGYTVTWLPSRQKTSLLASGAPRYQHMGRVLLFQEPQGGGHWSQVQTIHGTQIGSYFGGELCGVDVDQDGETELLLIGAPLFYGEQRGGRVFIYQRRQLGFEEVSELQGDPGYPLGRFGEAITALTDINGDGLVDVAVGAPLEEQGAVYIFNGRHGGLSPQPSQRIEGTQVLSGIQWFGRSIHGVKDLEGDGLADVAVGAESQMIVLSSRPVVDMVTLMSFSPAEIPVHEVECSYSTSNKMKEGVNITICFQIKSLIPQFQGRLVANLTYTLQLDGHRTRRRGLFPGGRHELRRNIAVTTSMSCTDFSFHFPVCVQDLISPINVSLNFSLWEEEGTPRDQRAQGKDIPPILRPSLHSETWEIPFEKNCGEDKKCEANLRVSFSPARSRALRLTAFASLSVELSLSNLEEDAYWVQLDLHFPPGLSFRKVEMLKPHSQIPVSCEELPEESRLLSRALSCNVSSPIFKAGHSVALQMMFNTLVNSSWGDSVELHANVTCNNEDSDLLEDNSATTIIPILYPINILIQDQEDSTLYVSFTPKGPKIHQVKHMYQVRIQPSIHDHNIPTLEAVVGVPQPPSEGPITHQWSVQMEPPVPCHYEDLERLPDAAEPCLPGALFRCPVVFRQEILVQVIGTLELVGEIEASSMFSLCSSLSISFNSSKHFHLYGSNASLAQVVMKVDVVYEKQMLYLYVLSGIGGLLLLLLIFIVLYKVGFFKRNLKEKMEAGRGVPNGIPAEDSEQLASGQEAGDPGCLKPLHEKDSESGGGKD
murine MHM24 (antibody), sequence (main, form in doubt): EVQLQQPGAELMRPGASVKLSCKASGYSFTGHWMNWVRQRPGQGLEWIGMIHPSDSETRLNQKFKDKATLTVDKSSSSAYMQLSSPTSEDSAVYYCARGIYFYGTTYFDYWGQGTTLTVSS
murine MHM24 (antibody), sequence (main, form in doubt): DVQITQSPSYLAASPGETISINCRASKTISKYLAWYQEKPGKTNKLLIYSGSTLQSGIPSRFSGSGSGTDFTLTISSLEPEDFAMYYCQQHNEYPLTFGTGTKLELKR

EC50 [1]	EC50 F(ab)/EC50 F(ab)-2 [1]	IC50 [2]	IC50, human mixed lymphocyte response (MLR) [3]	Var.EC50/HuIgG1 EC50 [4]	EC50 [5]	Kd [6]	Kd [7]	Kd [8]	IC50 [9]	IC50 [10]	Substance
5.2 ng/mL	0.006	0.1 nM									chimeric MHM24 IgG1 (antibody)
	0.004	0.13 nM	0.38 nM	1	0.042 nM	0.11 nM	0.18 nM	0.15 nM			humanized MHM24 IgG1 (antibody)
		0.09 nM	0.19 nM			0.16 nM	0.13 nM	0.15 nM			murine MHM24 (antibody)
									1.6 nM	1.2 nM	murine anti-human CD18 antibody MHM23
